Test results reported in the RNAGym collection of RNA variant scans (doi:10.1073/pnas.2313332121).
Fewer inactive variants are shown than the library holds.

B1: TPR 5TU (parent)
chain: GGAUCUUCUCGAUCUAACAAAAAAGACAAAUCUGCCACAAAGCUUGAGAGCAUCUUCGGAUGCAGAGGCGGCAGCCUUCGGUGGCGCGAUAGCGCCAACGUUCUCAACUAUGACACGCAAAACGCGUGCUCCGUUGAAUGGAGUUUAUCAUG

Variants of: B1
Assay: polymerase ribozyme fitness, log enrichment relative to wild type (log ratio); higher = more active; in vitro selection for triplet polymerase activity
How it was run: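 Fitness is a logarithmic measure of how a genotype enriched relative to the wild type, with replicate averages weighted by inverse variance. The logarithm uses base 2, and enrichment came from Illumina sequencing of input and output libraries. Those libraries were PCR-built, transcribed mutants of each subunit of a heterodimeric triplet polymerase ribozyme, passed through one triplicate in vitro selection round that included frozen incubation at −7 °C, gel excision of extended constructs and streptavidin-bead capture. Genotypes were kept only if they had ≥10 input reads and ≥1 read per output.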

Row | Variant | polymerase ribozyme fitness (log ratio)
1 | GGAUCUUCUCGAUCUAACAAAAAAGACAAAUCUGCCACAAAGCUUGAUAGCAUCUUCGGAUGCAGAGGCGGCAGCCUUCGGUGGCGCGAUAGCGCCAACGUUCUCAACUAUGACAUGCAAAACGCGUGCUCCGUUGAAUGGAGUUUAUCAUG [G48U C116U] | -0.65
2 | GGAUCUUCUCGAUCUAACAAAAAAGACAAAUCUGCCACAAAGCUUGACAGCAUCUUCGGAUGCAGAGGCGGCAGCCUUCGGGGGCGCGAUAGCGCCAACGUUCUCAACUAUGACACGCAAAACGCGUCCUCCGUAGAAUGGAGUUUAUCAUG [G48C U82G G128C U135A] | -3.96
3 | GGAUCUUCUCGAUCUAACAAAAAAGACAAAUCUGCCACAAAGCUUGAUAGCAUCUUCGGAUGCAGAGGCGGCAGCCUUCGGUGGCGCGAUAGGGCCAACGUUCUCAACUAUGACACGCAAAACGCGUGCUCCGUUGAAUGGAGUUUAUCAUG [G48U C93G] | -3.47
4 | GGAUCUUCUCGAUCUAACAAAAAAGACAAAUCUGCCACAAAGCUUGAUACCAUCUUCGGAUGCAGAGGCGGCAGCCUUCGGUGGGGCGAUAGCGCCAUUGUUCUCAACUAUGACACGCAAAACGCGUGCUCCGUUGAAUGGAGUUUAUUAUG [G48U G50C C85G A98U C99U C149U] | ≤ -4.2
5 | GGAUCUUCUCGAUCUAACAAAAAAGACAAAUCUGCCACAAAGCUUGAUAGCAUCUUCGGAUGCAGAGGCGGCAGCCUUCGGUGGCGCGAUAGCGCCAGCGUUCUCAACUAUGACACGCAAAACGCGUGCUCCGUUGAAUGGAGUUUAUCAUG [G48U A98G] | -0.0311
6 | GGAUCUUCUCGAUCUAACAAAAAAGACAAAUCUGCCACAAAGCUUGAUAGCAUCUUCGGAUGCAGAGGCGGCAGCCUUCGGUGGCGCGAUAGCGCCAACGUUCUCAACUAUGACACGCAAAACGCGUGCUCCGUUGAAUGGUGUUUAUCAUG [G48U A142U] | -2.92
7 | GGAUCUUCUCGAUCUAACAAAAAAGACAAAUCUGCCACAAAGCUUGAUAGCAUCUUCGGAUGCAGAGGCGGCAGCCUUCGGUGGCGCGAUAUCGCCAACGUUCUCAACUAUGACACGCAACACGCGUGCUCCGUUGAAUGGAGUUUAUCCUG [G48U G92U A121C A150C] | ≤ -4.2
8 | GGAUCUUCUCGAUCUAACAAAAAAGACAAAUCUGCCACAAAGCUUGAUAGCAUCUUCGGAUGCAGAGGCGGCAGCCUUCGGUGGCGCGAUAGCGCCAACGUUCUCAACUAUGACACGCAAAACGCGUGCUCCGUUGAAUGGAGUUUAUCAUG [G48U] | 0.247
9 | GGAUCUUCUCGAUCUAACAAAAAAGACAAAUCUGCCACAAAGCUUGAUAGCAUCUUCGGAUGCAGAGGCGGCAGCCUUCGGUAGCGCGAUAGCGCCAACGUUCUCAACUAUGACACGCAAAACGCGUGCUCCGAUAAAUGGAGUUUAUCAUG [G48U G83A U134A G136A] | -2.44
10 | GGAUCUUCUCGAUCUAACAAAAAAGACAAAUCUGCCACAAAGCUUGAUAGCAUCUUCGGAUGCAGAGGCGGCAGCCUUCGGGGGCGCGAUAGCGCGAACGUUCUCAACUAUGACACGCAAAACGCGUGCUCCGUUGAAUGGAGUUUAUCAUG [G48U U82G C96G] | -1.48
11 | GGAUCUUCUCGAUCUAACAAAAAAGACAAAUCUGCCACAAAGCUUGAUAGCAUCUUCGGAUGCAGAGGCGGCAGCCUUCGGUGGCGCGAUAGCGCAAACGUUCUCAACUAUGACACGCAAAACGCGUGCUCCGUUGAAUGGAGUUUAUCAUG [G48U C96A] | -0.685
12 | GGAUCUUCUCGAUCUAACAAAAAAGACAAAUCUGCCACAAAGCUUGAUAGCAUCUUCGGAUGCAGAGGCGGCAGCCUUCGGUGGCGCGAUAGCGCGAACGUUCUCAACUAUGACACGCAAAACGCGUGCUCCGUUGAAUGGAGUUUAUCAUG [G48U C96G] | -1.13
13 | GGAUCUUCUCGAUCUAACAAAAAAGACAAAUCUGCCACAAAGCUUGAUAGCAACUUCGGAUGCAGAGGCGGCAGCCUUCGGUGGUGCGAUAGCGCCAACGUUCUCAACUAUGACACGCAAAACGCGUGCUCCGUUGAAUGGAGUUUAUCAUG [G48U U53A C85U] | -1.94
14 | GGAUCUUCUCGAUCUAACAAAAAAGACAAAUCUGCCACAAAGCUUGAUAGCAUCUUCGGAUGCAAAGGCGGCAGCCUUCGGUGGCGCGAUAGCGUCAACGUUCUUAACUAUGACACGCAAAACGCGUGGUCUGUUGAAUGGAGUUUAUCAUG [G48U G65A C95U C105U C129G C132U] | ≤ -4.2
15 | GGAUCUUCUCGAUCUAACAAAAAAGACAAAUCUGCCACAAAGCUUGAGCGCCUCUUCGGAUGCAGGGGCGGCAGCCUUCGGUGGCCCGAUAGCGCCAACGUUCUCAACUAUGACACGCGAAACGCGUGCUCCGUUGAAUGGAGUUUAUCAUG [A49C A52C A66G G86C A119G] | ≤ -4.2
16 | GGAUCUUCUCGAUCUAACAAAAAAGACAAAUCUGCCACAAAGCUUGAUAGCAUCUUCGGAUGCAGAGGCGGCAGCCUUCGGUGGAGCGAUAGCGCCAACGUUCUCAACUAUGACACGCAAAACGCGCGCUCCGUUGAAUGGAGUUUAUCAUG [G48U C85A U127C] | -2.74
17 | GGAUCUUCUCGAUCUAACAAAAAAGACAAAUCUGCCACAAAGCUUGAUAGCAUCAUCGGAUGCAGAGGCGGCAGCCUUCGGUGGCGCGAUAGCGCCAAUGUUCUCAACUAUGACACGCAAAACGCGUGCUCCGUUGAAUGGAGUUUAUCAUG [G48U U55A C99U] | -2.23
18 | GGAUCUUCUCGAUCUAACAAAAAAGACAAAUCUGCCACAAAGCUUGACAGCAUCAUCGGAUGCAGAGGCGGCAGCCUUCGGUGGCGCGAUAGCGCCAACGUUGUCAACUAUGACACGCAAAACGCGUGCUCCGUUGAAUGGAGUUUAUCAUG [G48C U55A C103G] | -0.533
19 | GGAUCUUCUCGAUCUAACAAAAAAGACAAAUCUGCCACAAAGCUUGAGCGCCUCUUCGGAUGCAGAGGCGGCAGCCUUCGGUGGCGCGAUUGCGCCAACGUUCUCAACUAUGACACGCAAAACGCGUGCACCGACGAAUGGGGUUUAUCAUG [A49C A52C A91U U130A U134A U135C A142G] | ≤ -4.2
